Data: the supplement of paper PMC9170038

Tested on: MS2 coat protein
Assay: apparent KD of MS2 coat protein; higher = weaker reporter binding
Conditions: Eterna round: R107
Summary of the method: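 With or without constant ligand, designed RNA switches in 100 mM Tris-HCl pH 7.5, 80 mM KCl and 4 mM MgCl2 were titrated with SNAP-549-labelled MS2 coat protein. Concentrations went up in twofold steps from 0.7 or 1.5 nM to 3 µM. The switches had been transcribed on-chip from Illumina sequencing clusters, and apparent KD is the per-design median of normalised cluster binding-curve fits.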

[1] = input ligand: theophylline 20 uM
[2] = input ligand: theophylline 2 mM
[3] = input ligand: tryptophan 2.4 mM

| Sequence | apparent KD of MS2 coat protein (input ligand: arginine 13.2 mM) | apparent KD of MS2 coat protein (input ligand: none) | apparent KD of MS2 coat protein [1] | apparent KD of MS2 coat protein [2] | apparent KD of MS2 coat protein [3] |
| --- | --- | --- | --- | --- | --- |
| GGCUGUCAUAGGAGGUCAAAUAUACUCGAAGGAGCGUCAUAGUAGGCAGGUAGGUCGCGAGACAUGAGGAUCACCCAUGUAGAGA [xkxmullin] | 37.7 nM | 69.1 nM | 122 nM | 52.9 nM | 30.6 nM |
| GGCUGUUGCGAUUUGAAGCGGCAGCGUGAUACCAGAUGUAAGAGCGUCCCUUGGCAGCACGUUUACAUGAGGAUCACCCAUGUCA [Xerema] | 56.6 nM |  | 123 nM |  | 192 nM |
| GGCUGUUGCUCUUUGAAGCGGCAGCGUGAUACCAGAUGUAAGAGCGUCCCUUGGCAGCACGUUUACAUGAGGAUCACCCAUGUCA [Raisquin] | 70.6 nM |  | 163 nM |  | 151 nM |
| GGCUUCAACUCGGCCGCCACUGGUGAUCCUCAUGUACAUGAGGAUCACCCAUGUACAUGAGACUACAGGACCGGGAGAUCAGCAA [Tryptophan B] | 10.5 nM |  | 28.8 nM | 22.5 nM |  |
| GGGAAUGAACGUGAUACCAGAGAUCCGGUCUCCGUCACUCUACAUGAGGAUCACCCAUGUCUCCCUUGGCAGCACCGUCAUCGGG [Exclusion Theophylline B GF 29] | 32.4 nM |  | 43.3 nM |  | 29 nM |
| GGGACAUCGGGAAGGAGCGCAUCCAAACCACACAUGAGGAUCACCCAUGUAUAAAUAUGCAUGCAGGUAGGUCGCCCGGUGCCUC [Axeenza] | 44.2 nM | 114 nM | 131 nM | 123 nM | 101 nM |
| GGGAGGGAGGCGGCCGCCACUGAUUUUCAUAUAUAUAUAACAUGAGGAUCACCCAUGUGGAUAUGCAGGACCGGGCCUUUUUUUU [aaaJ] | 123 nM | 22.2 nM | 18.8 nM | 13.2 nM | 20.2 nM |
| GGGCAAGAGGGAAGGAGCGUCGGCUGAGUAACAUGAGGAUCACCCAUGUAGCACAUGGUGUGGCAGGUAGGUCGCCCUCUGCCCU [SS-ArgB8] | 56.1 nM | 103 nM | 201 nM | 178 nM | 118 nM |
| GGGCCCGGGCCCGAUACCAGCAGAGAAAACAUAUAUCCUAACAUGAGGAUCACCCAUGUAUGCCCUUGGCAGCGGGCCCGGGCCC [#15 Exclusion-TheophyllineB] | 32.2 nM | 34.5 nM | 33.9 nM | 33.2 nM | 28.2 nM |
| GGGCCCGGGCGCGAGCCCGGGCCCAUUGAUACCAGUGAAUAUAUACGCCCUUGGCAGCGAAUCCUAACAUGAGGAUCACCCAUGU [5.B] | 34.8 nM | 50.2 nM | 62.3 nM | 49.4 nM | 38.2 nM |
| GGGCCCGGGCGCGAGCCCGGGCCCAUUGAUACCAGUGAAUGUGUACGCCCUUGGCAGCGAAUCCUAACAUGAGGAUCACCCAUGU [5.D] | 31.4 nM |  | 76.7 nM |  | 35.2 nM |
| GGGCCUGUAGGCAGGCCCACAGCGGGUGAUACCAGCAAUAAAACUUGCCCUUGGCAGCACACAGCUACAUGAGGAUCACCCAUGU [Ismaorxe] | 44.9 nM |  | 99.3 nM |  | 69.7 nM |
| GGGCGCUAUCCCGCGAGGGAUAGCGUUCAACGAGGACCGGUACGGCCGCCACUCGAACGAGUGGGUACAUGAGGAUCACCCAUGU [Haa] | 19.9 nM | 28.5 nM | 46.4 nM | 37.1 nM | 35.4 nM |
| GGGCGUGUGGCGCGGCGUGCUCCGCUCCGUCGAGGACCGGUACGGCCGCCACUCGACAUGAGGAUCACCCAUGUGCGAGCUCGCG [#1 Exclusion - Tryptophan A Attempt #11 (HarryS)] | 17.6 nM | 33.8 nM | 35.6 nM | 44.6 nM | 154 nM |
| GGGUACAUCGCGGCCGCCACUUAUGUAAAUACAUGAGGAUCACCCAUGUCGAUGGAGACAUCGGUAAGGACCGGGUGAUGUACCG | 168 nM | 155 nM | 174 nM | 183 nM |  |
| GGGUCGGGCGCGGCCGCCACUGCGGUGGUGUGACAUGAGGAUCACCCAUGUUGUCAUGCGGCCCUUAGGACCGGGCGCCCGGCCC [#1 Exclusion - Tryptophan B Attempt #11 (HarryS)] | 19.3 nM | 42.5 nM | 67.4 nM | 70.1 nM | 38.4 nM |
| GGGUGCGGCACGGCCGCCACUGCGGUGGUGUGACAUGAGGAUCACCCAUGUUGUCAUGCGGCCCUUAGGACCGGGUGGCGUGCCU [#1 Exclusion - Tryptophan B Attempt #15 (HarryS)] | 5.27 nM | 24.1 nM | 31.2 nM | 89.5 nM | 38 nM |
| GGGUGCGGGCGAAGGAGCGUGAAGACAUGAGGAUCACCCAUGUAGAGGCCCGAACAGGGUUCGCAGGUAGGUCGCGCGCGUGCCC [#1 Same State - Arginine B Attempt #5 (HarryS)] | 11.8 nM | 15.6 nM | 20.4 nM | 18.6 nM | 16.3 nM |
| GGGUGCGGGUGAAGGAGCGUGAAGACAUGAGGAUCACCCAUGUAGAGGCCCGAACAGGGUUCGCAGGUAGGUCGCACCCGUGCCC [#1 Same State - Arginine B Attempt #3 (HarryS)] | 12 nM | 17.3 nM | 22.8 nM | 19.5 nM | 16.4 nM |
| GGGUGGUAGGCGGCCGCCACUGAUUUUCAUUCAUAGAUGACAUGAGGAUCACCCAUGUUUAUGUGCAGGACCGGGCCUGCUGUGG [aaaU] | 43.4 nM | 144 nM | 102 nM | 115 nM | 116 nM |
